Results from patent publication US20060159697A1 (INSTITUT PASTEUR, published 2006).

Target: human CD11b/CD18 (alphaM beta2 integrin) on transfected CHO cells (human, UniProt P11215 17-1152; P05107 23-769)
Assay: FACS competition on CHO-CD11b cells, competitor CyaA-biotin

B1: CyaA 373-1706 (hemolytic moiety) (other)
chain: MGCGNSKFSPDVLETVPASPGLRRPSLGAVERQDSGYDSLDGVGSRSFSLGEVSDMAAVEAAELEMTRQVLHAGARQDDAEPGVSGASAHWGQRALQGAQAVAAAQRLVHAIALMTQFGRAGSTNTPQEAASLSAAVFGLGEASSAVAETVSGFFRGSSRWAGGFGVAGGAMALGGGIAAAVGAGMSLTDDAPAGQKAAAGAEIALQLTGGTVELASSIALALAAARGVTSGLQVAGASAGAAAGALAAALSPMEIYGLVQQSHYADQLDKLAQESSAYGYEGDALLAQLYRDKTAAEGAVAGVSAVLSTVGAAVSIAAAASVVGAPVAVVTSLLTGALNGILRGVQQPIIEKLANDYARKIDELGGPQAYFEKNLQARHEQLANSDGLRKMLADLQAGWNASSVIGVQTTEISKSALELAAITGNADNLKSVDVFVDRFVQGERVAGQPVVLDVAAGGIDIASRKGERPALTFITPLAAPGEEQRRRTKTGKSEFTTFVEIVGKQDRWRIRDGAADTTIDLAKVVSQLVDANGVLKHSIKLDVIGGDGDDVVLANASRIHYDGGAGTNTVSYAALGRQDSITVSADGERFNVRKQLNNANVYREGVATQTTAYGKRTENVQYRHVELARVGQVVEVDTLEHVQHIIGGAGNDSITGNAHDNFLAGGSGDDRLDGGAGNDTLVGGEGQNTVIGGAGDDVFLQDLGVWSNQLDGGAGVDTVKYNVHQPSEERLERMGDTGIHADLQKGTVEKWPALNLFSVDHVKNIENLHGSRLNDRIAGDDQDNELWGHDGNDTIRGRGGDDILRGGLGLDTLYGEDGNDIFLQDDETVSDDIDGGAGLDTVDYSAMIHPGRIVAPHEYGFGIEADLSREWVRKASALGVDYYDNVRNVENVIGTSMKDVLIGDAQANTLMGQGGDDTVRGGDGDDLLFGGDGNDMLYGDAGNDTLYGGLGDDTLEGGAGNDWFGQTQAREHDVLRGGDGVDTVDYSQTGAHAGIAAGRIGLGILADLGAGRVDKLGEAGSSAYDTVSGIENVVGTELADRITGDAQANVLRGAGGADVLAGGEGDDVLLGGDGDDQLSGDAGRDRLYGEAGDDWFFQDAANAGNLLDGGDGRDTVDFSGPGRGLDAGAKGVFLSLGKGFASLMDEPETSNVLRNIENAVGSARDDVLIGDAGANVLNGLAGNDVLSGGAGDDVLLGDEGSDLLSGDAGNDDLFGGQGDDTYLFGVGYGHDTIYESGGGHDTIRINAGADQLWFARQGNDLEIRILGTDDALTVHDWYRDADHRVEIIHAANQAVDQAGIEKLVEAMAQYPDPGAAAAAPPAARVPDTLMQSLAVNWR
  binding result: binds
